Source: US20240150451A1

biological target: tau of P301S transgenic mice (aggregated tau in brainstem; tau seeds from spinal cord) (UniProt P10636); test: cell-based or functional assay
Sequence (P10636 other isoform, or with tags, fused parts or gaps P301S P301S): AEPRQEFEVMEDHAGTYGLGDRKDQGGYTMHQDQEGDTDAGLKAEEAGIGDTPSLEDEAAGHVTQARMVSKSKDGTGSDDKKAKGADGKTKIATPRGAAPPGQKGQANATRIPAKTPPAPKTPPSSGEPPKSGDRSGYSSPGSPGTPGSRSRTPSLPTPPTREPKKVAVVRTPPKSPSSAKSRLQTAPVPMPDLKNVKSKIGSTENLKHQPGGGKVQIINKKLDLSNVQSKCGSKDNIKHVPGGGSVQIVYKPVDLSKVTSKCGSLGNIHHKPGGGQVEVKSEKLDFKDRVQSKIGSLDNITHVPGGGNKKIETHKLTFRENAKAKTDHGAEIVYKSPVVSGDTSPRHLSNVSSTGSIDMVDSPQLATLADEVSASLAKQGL

| % inhibition of tau seeding in FRET biosensor cells after immunodepletion, antibody 3 nM | % inhibition of tau seeding in FRET biosensor cells after immunodepletion, antibody 300 nM | Binder |
| --- | --- | --- |
| 22% | 99.7% | hTau60 monoclonal antibody (recombinant, mouse IgG2a/kappa) (antibody, V domains shown) VH: EVQLQQSGPELVKPGTSVKISCKVFGYTFTDYYMNWVKQSHGKSLEWIGDINPDNGETTYNQKFKGKATLTVDKSSSTAYMELRSLTSEDSAVYYCAKGATFVYWGQGTLVTVSA VL: DVVMTQTPLSLPVSLGDQASISCISSQSLVHSTGTTFLHWFLQKPGQSPKLLIYKVSNRFSGVPDRFSGSGSGTDFTLKISRVEAEDLGFYFCSQSTYFPLTFGSGTKLEIKR |
| 46.5% | 99.7% | PT66 monoclonal antibody (recombinant, mouse IgG2a/kappa) (antibody, V domains shown) VH: QVQLQQPGAELVKPGASVKMSCKASGYTFTSYWITWVKQRPGQGLEWIGDIHPGRGSTKSNEKFKSKATLTVDTSSSTAYMQFSSLTSEDSAVYYCARRWGFDYWGQGTTLTVSS VL: DIVITQDELSNPVTSGESVSISCRSSKSLLYKDGKTYLNWFLQRPGQSPQLLIYLMSTRASGVSDRFSGSGSGTDFTLEISRVKAEDVGVYYCQQLVDYPLTFGAGTKLELKR |
| 45.8% | 99.8% | PT69 monoclonal antibody (recombinant, mouse IgG2a/kappa) (antibody, V domains shown) VH: QVQLQQPGAELVKPGASVKMSCKASGYTFTNYWITWVKQRPGQGLEWIGDIYPGSGRTKSNEKFKNKATLTADTSSSTAYMQLSSLTSEDSAVYYCTRRWGLDYWGQGTTLTVSS VL: DIVITQDELSNPVTSGESVSISCRSNKSLLYKDGKTYLNWFLQRPGQSPQLLIYLMSTRASGVSDRFSGSGSGTDFTLEISRVKAEDVGVYYCQQLVDYPLTFGAGTKLELKR |
